Experimental data taken from patent publication US8343911B2, “Methods of inhibiting and treating bacterial biofilms by metal chelators” (University of Iowa Research Foundation, priority 2002, dated 2013).

Columns and labels:
Type in all cases: cell-based
[1] = tested on: wild-type P. aeruginosa PAO1; assay: Biofilm formation in continuous culture flow cells (confocal microscopy); settings: for effect on biofilm development / formation / effect on biofilm formation, iron-saturated protein: 20 μg/ml, flow cells; for effect on biofilm development / formation: Fe-unsaturated protein, up to day 7; for effect on biofilm formation, iron-saturated protein: Fe-saturated protein
Method: (§1) For studies of biofilm formation, wild-type P. aeruginosa PAO1 and the surface motility mutant were grown in flow cells similar to those described previously; the size of the flow channel was 5×35×1 mm. An overnight culture diluted to 10^7 cells per ml in fresh biofilm medium was used as the inoculum and flow was arrested for 45 min. Flow of biofilm medium with and without 20 μg/ml of Fe-unsaturated or Fe-saturated lactoferrin or conalbumin (Sigma Chemical Co.) was then initiated at a rate of 170 μl/min. Images were obtained using a Biorad (Hercules, Calif.) scanning confocal microscope.

P. aeruginosa [2] = assay: Bacterial movement and behaviors (squatters, ramblers, flyers) in flow cells; settings: in the presence of lactoferrin; 40 parental cells, three generations; FIG. 3c,d
Method: (§2) Bacterial movement was assessed by using time-lapse images acquired at 1 min intervals. Motion of bacterial cells was traced visually by following individual cells. VOXblast software (VayTek, Inc, Fairfield, Iowa) was used to obtain the X-Y coordinates of bacterial cells.
(§3) Bacterial behaviors were classified as follows. Squatters remained within a 15 μm circle drawn around the point of parental cell division until the time of its cell division. Ramblers remained attached to the growth surface, but moved outside the circle. Flyers detached and were carried away by media flow. Dividing times of attached bacteria were measured by counting the number of frames between cell divisions; 60 bacterial divisions were observed and the dividing times were averaged.

[3] = tested on: P. aeruginosa surface motility mutant (PA01 deletion mutant); assay: Biofilm formation of surface motility mutant in flow cells; settings: in the presence of lactoferrin, FIG. 4e,f
Method: (§4) P. aeruginosa strain PAO1 containing the GFP plasmid pMRP9-1 was used for most studies. Where indicated, an isogenic surface motility mutant (a PA01 deletion mutant from J. Kato (Department of Fermentation Technology, Hiroshima University, Hiroshima, Japan.) containing pMRP9-1 was used. Biofilm medium consisted of 1% Trypticase Soy Broth (Difco, Detroit, Mich.). In the growth experiments, approximately 10^3 bacteria from an overnight culture were added to 5 ml of biofilm medium containing the indicated concentrations of lactoferrin (Sigma Chemical Co., St Louis, Mo.). Cultures were incubated in acid-washed tubes at 37° C. with shaking. Colony-forming units were determined by plate counting. […] P. aeruginosa with pMRP9-1 was also grown in lactoferrin-containing effluent medium from flow cells. After one day of bacterial growth, effluent was collected on ice, filter sterilized, and growth was assessed as above.

P. aeruginosa [4] = assay: Dividing times of attached bacteria in flow cells (time-lapse microscopy)
Method: as §1, §2, §3

[5] = tested on: P. aeruginosa strain PAO1; assay: Growth of free swimming P. aeruginosa in biofilm medium containing lactoferrin (plate counting)
Method: as §4

P. aeruginosa biofilms = assay: Antimicrobial susceptibility of biofilms grown in rotating disk reactor (viable cell counts); settings: Fe-unsaturated conalbumin during 48 h biofilm growth
Method: P. aeruginosa biofilms for susceptibility tests were grown in a rotating disk reactor. Fe-unsaturated conalbumin (Sigma Chemical Co.) was added to standard biofilm medium at indicated concentrations for the duration of biofilm growth. Discs and attached bacteria were then washed 3 times in distilled water, and treated for 4 h in 1 ml of H2O2 (Fisher Scientific) or tobramycin (Eli Lilly, Indianapolis, Ind.) at indicated concentrations. The treated discs were washed 3 times, and bacteria were removed and dispersed in 2 ml sterile PBS by homogenization (Brinkman Homogenizer, model 10/35). Viable cell numbers were enumerated by plate counting.

B1: lactoferrin (protein, UniProt P02788 20-710, looked up)
Lactotransferrin: GRRRSVQWCAVSQPEATKCFQWQRNMRKVRGPPVSCIKRDSPIQCIQAIAENRADAVTLDGGFIYEAGLAPYKLRPVAAEVYGTERQPRTHYYAVAVVKKGGSFQLNELQGLKSCHTGLRRTAGWNVPIGTLRPFLNWTGPPEPIEAAVARFFSASCVPGADKGQFPNLCRLCAGTGENKCAFSSQEPYFSYSGAFKCLRDGAGDVAFIRESTVFEDLSDEAERDEYELLCPDNTRKPVDKFKDCHLARVPSHAVVARSVNGKEDAIWNLLRQAQEKFGKDKSPKFQLFGSPSGQKDLLFKDSAIGFSRVPPRIDSGLYLGSGYFTAIQNLRKSEEEVAARRARVVWCAVGEQELRKCNQWSGLSEGSVTCSSASTTEDCIALVLKGEADAMSLDGGYVYTAGKCGLVPVLAENYKSQQSSDPDPNCVDRPVEGYLAVAVVRRSDTSLTWNSVKGKKSCHTAVDRTAGWNIPMGLLFNQTGSCKFDEYFSQSCAPGSDPRSNLCALCIGDEQGENKCVPNSNERYYGYTGAFRCLAENAGDVAFVKDVTVLQNTDGNNNEAWAKDLKLADFALLCLDGKRKPVTEARSCHLAMAPNHAVVSRMDKVERLKQVLLHQQAKFGRNGSDCPDKFCLFQSETKNLLFNDNTECLARLHGKTTYEKYLGPQYVAGITNLKKCSTSPLLEACEFLRK
notes: known iron chelating protein (Sigma Chemical Co.), proteinaceous metal chelator
effect on biofilm development / formation [1]: differentiated biofilm formation was completely blocked
effect on biofilm development / formation ([1]; listed as Lactoferrin): disrupted this pattern of development
effect on structure of mature biofilms ([1]; 5 day-old biofilms exposed to lactoferrin-containing medium for 48 h): failed to alter their structure
proportion of bacteria as squatters, ramblers, flyers (P. aeruginosa [2]): a significantly larger proportion of cells exhibited rambling behavior and fewer were squatters
biofilm formation by surface motility mutant [3]: formed microcolonies and irregularly shaped biofilms in both the absence and presence of lactoferrin
increase of dividing time of attached cells (P. aeruginosa [4]; 20 μg/ml lactoferrin vs. without): 27%
effect on growth of attached cells (P. aeruginosa [4]; concentration of lactoferrin that prevents biofilm formation): only slightly reduced the growth of attached cells
dividing time of attached cells (P. aeruginosa [4]; with 20 μg/ml lactoferrin, average of 60 divisions): 127 min
effect on growth rate of free swimming P. aeruginosa PAO1 ([5]; 20 μg/ml lactoferrin (sub-inhibitory), FIG. 1): did not affect the growth rate
concentration of lactoferrin that inhibited bacterial growth ([5]; biofilm medium, 37° C. with shaking, varied for different lots): ≥ 30 µg/mL
number of doublings in lactoferrin-containing effluent (conditioned) medium from flow cells ([5]; in 22 h, spent lactoferrin-treated medium): 6 times

B2: lactoferrin (protein, UniProt P02788 20-710, looked up)
Lactotransferrin: GRRRSVQWCAVSQPEATKCFQWQRNMRKVRGPPVSCIKRDSPIQCIQAIAENRADAVTLDGGFIYEAGLAPYKLRPVAAEVYGTERQPRTHYYAVAVVKKGGSFQLNELQGLKSCHTGLRRTAGWNVPIGTLRPFLNWTGPPEPIEAAVARFFSASCVPGADKGQFPNLCRLCAGTGENKCAFSSQEPYFSYSGAFKCLRDGAGDVAFIRESTVFEDLSDEAERDEYELLCPDNTRKPVDKFKDCHLARVPSHAVVARSVNGKEDAIWNLLRQAQEKFGKDKSPKFQLFGSPSGQKDLLFKDSAIGFSRVPPRIDSGLYLGSGYFTAIQNLRKSEEEVAARRARVVWCAVGEQELRKCNQWSGLSEGSVTCSSASTTEDCIALVLKGEADAMSLDGGYVYTAGKCGLVPVLAENYKSQQSSDPDPNCVDRPVEGYLAVAVVRRSDTSLTWNSVKGKKSCHTAVDRTAGWNIPMGLLFNQTGSCKFDEYFSQSCAPGSDPRSNLCALCIGDEQGENKCVPNSNERYYGYTGAFRCLAENAGDVAFVKDVTVLQNTDGNNNEAWAKDLKLADFALLCLDGKRKPVTEARSCHLAMAPNHAVVSRMDKVERLKQVLLHQQAKFGRNGSDCPDKFCLFQSETKNLLFNDNTECLARLHGKTTYEKYLGPQYVAGITNLKKCSTSPLLEACEFLRK
modifications: iron-saturated
notes: lactoferrin in the iron-saturated state
effect on biofilm formation, iron-saturated protein [1]: did not prevent P. aeruginosa biofilm formation

B3: conalbumin (protein, UniProt P02789 20-705, looked up)
Ovotransferrin: APPKSVIRWCTISSPEEKKCNNLRDLTQQERISLTCVQKATYLDCIKAIANNEADAISLDGGQAFEAGLAPYKLKPIAAEVYEHTEGSTTSYYAVAVVKKGTEFTVNDLQGKTSCHTGLGRSAGWNIPIGTLLHRGAIEWEGIESGSVEQAVAKFFSASCVPGATIEQKLCRQCKGDPKTKCARNAPYSGYSGAFHCLKDGKGDVAFVKHTTVNENAPDQKDEYELLCLDGSRQPVDNYKTCNWARVAAHAVVARDDNKVEDIWSFLSKAQSDFGVDTKSDFHLFGPPGKKDPVLKDLLFKDSAIMLKRVPSLMDSQLYLGFEYYSAIQSMRKDQLTPSPRENRIQWCAVGKDEKSKCDRWSVVSNGDVECTVVDETKDCIIKIMKGEADAVALDGGLVYTAGVCGLVPVMAERYDDESQCSKTDERPASYFAVAVARKDSNVNWNNLKGKKSCHTAVGRTAGWVIPMGLIHNRTGTCNFDEYFSEGCAPGSPPNSRLCQLCQGSGGIPPEKCVASSHEKYFGYTGALRCLVEKGDVAFIQHSTVEENTGGKNKADWAKNLQMDDFELLCTDGRRANVMDYRECNLAEVPTHAVVVRPEKANKIRDLLERQEKRFGVNGSEKSKFMMFESQNKDLLFKDLTKCLFKVREGTTYKEFLGDKFYTVISSLKTCNPSDILQMCSFLEGK
notes: a lactoferrin-like chicken egg host defense protein; iron chelating protein, tested Fe-unsaturated and Fe-saturated
effect on biofilm formation, iron-saturated protein [1]: not when iron-saturated
effect on biofilm development / formation [1]: prevented biofilm formation in the iron-unsaturated state
effect of growth in conalbumin on biofilm resistance to H2O2 (P. aeruginosa biofilms; then H2O2 4 h): decreased resistance to both agents in a dose-dependent manner
effect of growth in conalbumin on biofilm resistance to tobramycin (P. aeruginosa biofilms; then tobramycin 4 h): decreased resistance to both agents in a dose-dependent manner
